# Measurements reported in patent US20210253725A1 (BIONTECH, published 2021).
# Substitutions are numbered along the chain they refer to. Names and notes keep the numbering of the source.
# T1: CD27 expressed on the cell surface (HT1080_CD27 cells) (human, UniProt P26842 20-260)
# T1 construct: whole, on cells; also called K562_CD27
# T1 sequence (looked up): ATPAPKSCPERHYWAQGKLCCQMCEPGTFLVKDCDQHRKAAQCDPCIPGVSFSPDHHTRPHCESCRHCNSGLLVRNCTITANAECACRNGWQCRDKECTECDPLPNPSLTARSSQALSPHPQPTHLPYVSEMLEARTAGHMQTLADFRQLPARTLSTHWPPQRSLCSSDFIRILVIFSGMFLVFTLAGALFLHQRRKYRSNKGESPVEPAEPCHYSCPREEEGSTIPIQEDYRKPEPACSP
# T2: CD27 protein (His-tagged, Sino Biological Inc. 10039-H08B1) (human, UniProt P26842 20-192)
# T2 construct: bought; coated onto ELISA plates; also called human CD27; recombinant protein; not shown: His tag
# T2 sequence (looked up): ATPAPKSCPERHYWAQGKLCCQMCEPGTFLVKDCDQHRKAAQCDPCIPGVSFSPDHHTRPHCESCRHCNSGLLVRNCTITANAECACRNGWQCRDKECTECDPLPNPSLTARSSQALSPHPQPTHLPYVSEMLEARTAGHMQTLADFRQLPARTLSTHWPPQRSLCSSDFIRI
# B1: P018.S.08.A.E02 (antibody, V domains shown)
# VH: QSLEESGGRLVTPGGSLTLTCTVSGIDLSSYDMNWVRQAPGEGLEWIGAISTGGDTHYTNWAKGRFTISKTSTTVDLKMTSLTAADTATYFCARGYYTLALWGQGTLVTVSS
# VL: DPVLTQTPASVEAAVGGTVTIKCQASQSINSWLSWYQQKPGQPPKRLIYDTSTLESGVPSRFSGGESGTEFTLTISDLESDDAATYYCQSYYYITSSYAITFGGGTEVVVK
# notes: V regions on human Ig constant parts; also called AB27_139
# B2: P018.S.07.A.F04 (antibody, V domains shown)
# VH: QSLEESGGRLVTPGTPLTLTCTVSGFSLSSHAMSWVRQAPGKGLEYIGIIDTDASASYASWAKGRFTISRTSTTVDLKITSPTTEDTATYFCARDGGYTDYSYYAMDLWGPGTLVTVSS
# VL: DIVMTQTPASVEAAVGGTVTIKCQASETIYVNLAWYQQKPGQPPKLLIYRASTLASGVSSRFKGSGSGTEFTLTISDVKSVDAATYYCHQAYRRSDVGNIFGGGTEVVVK
# notes: V regions on human Ig constant parts; also called AB27_128
# B3: P018.S.07.A.D04 (antibody, V domains shown)
# VH: QSLEESGGRLVTPGGSLTLTCTVSGIDLSSYAMGWVRQAPGKGLEWIGIISSSGSTYYASWANGRFTISKTSTTVDLKVTSPTTEDTATYFCARDGDSGRGYYFHFWGQGTLVTVSS
# VL: AFELTQTPASVSAAVGGTVTIKCQASEDIYSLLAWYQQKPGQPPKLLIYDASDLASGVPSRFSGSGSGTEYTLTISDLESADAAIYYCQQGYTTVTIVDNVFGGGTEVVVK
# notes: V regions on human Ig constant parts; also called AB27_123
# B4: P018.S.04.A.A01 (antibody, V domains shown)
# VH: QEQLVESGGGLVQPEGSLTLTCTESGFSFSSNAVCWVRQAPGKGLEWIACIYVDSIGSTWYASWAKGRFTISKTSSTTVTLQMTSLTAADTATYFCARGDNIAYFMLWGPGTLVTVSS
# VL: DIVMTQTPASVEAAVGGTVTIRCQASESITSFLSWYQQKPGQPPKLLIYKISTLASGVPSRFKASGSGTEFTLTISDLESADAAAYYCQGYYYYSNVVYASNGFGGGTEVVVK
# notes: V regions on human Ig constant parts; also called AB27_64
# B5: P018.S.01.A.F05 (antibody, V domains shown)
# VH: QEQLEESGGDLVKPEGSLTLTCTASGFSFSSSYWICWVRQAPGKGLEWIGCIITGRGNTYYANWAKGRFTISKTSSTTVTLQMTSLTAADTAIYSCARGPGGADPVNLWGPGTLVTVSS
# VL: DVVMTQTPASVSEPVGGTVTIKCQASQSIYSNLAWYQQKPGQPPKLLIYRASTLTSGVPSRFKGSGSGTQFTLTISDLESADAATYYCQCTYDGSSYVPNAFGGGTEVVVK
# notes: V regions on human Ig constant parts; also called AB27_20
# B6: P018.S.05.A.B02 (antibody, V domains shown)
# VH: QSLEESGGRLVTPGTPLTLTCKVSGFSLSSYDMIWVRQAPGKGLEWIGIVSTGGSAGYASWAKGRFTITKTSTTVDLKITSPTTEDTATYFCARIISGGRDLWGPGTLVTVSS
# VL: DIVMTQTPASVEAAVGGTVTIKCQASESISSRLAWYQQKPGQPPKLLIYSASTLAFGVSSRFKGSGSGTQFTLTISDLESADAATYYCQSYYYSSTASYASNNAFGGGTEVVVK
# notes: V regions on human Ig constant parts; also called AB27_83
# B7: P018.S.09.A.D04 (antibody, V domains shown)
# VH: QSVEESGGRLVTPGTPLTLTCTVSGFSLSSNAISWVRQAPGKGLEWIAIITHSDNTFYASWAKGRFTISKASTTVDLKVTSPTTEDTATYFCARDGYVSSSGTYMGGYFDLWGQGTLVTVSS
# VL: DPVLTQTPSPVSAAVGGTVTINCQASQIIYNDKNLAWYQQKPGQPPKLLIYYASTLASGVSSRFKGSASGTQFTFTISGVQSDDAATYYCQGEFSCSSADCIAFGGGTEVVVK
# notes: V regions on human Ig constant parts; also called AB27_151
# B8: P018.S.03.A.C05 (antibody, V domains shown)
# VH: QSLEESGGGLVQPGGTLTLTCKASGIDFSSSFYMCWVRQAPGKGLERIACTYNRDGSTYYASWAKGRFTISKTSSTTVTLQMASLTVADTATYFCARDDGYPGSGYVFNLWGPGTLVTVSS
# VL: DVVMTQTPASVEAAVGGTVTIKCQASQSVSSYLSWYQQKPGQRPKLLIYGASNLESGVPSRFKGSGSGTEFTLTISGVQSDDAATYYCQGGYYSSGADNNSFGGGTELVVK
# notes: V regions on human Ig constant parts; also called AB27_46
# B9: P018.S.07.A.H06 (antibody, V domains shown)
# VH: QSLEESGGDLVQPGASLTLTCKASGIDLSSYWMCWVRQTPGKGLEWIGCIATYSSVTYYANWAKGRFTISKPSSTTVTLQMTSLTAADTATYFCARDPYSFNGSLFTLWGPGTLVTVSS
# VL: ALVMTQTASPVSAAVGGTVTIDCQASQNIGTYLAWYQQKPGQPPKLLIYTASSLASGVPSRFKGSGSGTQFTLTISDLESDDAATYYCAGYKNYNNDDNGFGGGTEVVVK
# notes: V regions on human Ig constant parts; also called AB27_134
# B10: P018.S.04.A.D05 (antibody, V domains shown)
# VH: QSLEESGGRLVTPGTPLTLTCTASGIDLSRHAINWVRQAPGKGLEYIGTIYASGSTFYASGAKGRFTISKTSTTVDLGITSLTTEDTATYFCARGITIEWFDLWGQGTLVTVSS
# VL: AAVLTQTPSSVSAAVGGTVTINCQSSPSVYSNYLSWFQQKPGQPPKLLIYGAATLASGVPSRFRGSGSGTEFTLTITDVQSDDAATYYCLGGYSDTADTIFGGGTEVVVK
# notes: V regions on human Ig constant parts; also called AB27_73
# B11: P018.S.02.A.E06 (antibody, V domains shown)
# VH: QSLEESGGRLVTPGTPLTLTCTASGFSLSNYSMNWVRQAPGKGLEWIGIINMYGSTYYATWAKGRFTISKTSTTVDLKMTSLTTEDTATYFCARDAGGSTVPWYFDLWGPGTLVTVSS
# VL: AYDMTQTPASVSEPVGGTVTIKCQASESISDYLAWYQQKPGQRPKLLIYDASKLASGVPSRFSGSGSGTEFTLTISGVGSADAATYYCQQGYADSNVDNVFGGGTEVVVK
# notes: V regions on human Ig constant parts; also called AB27_34
# B12: P018.S.07.A.D03 (antibody, V domains shown)
# VH: QEQLKESGGGLVTPGGTLTLTCTVSGFSLSGHDMGWVRQAPGKGLEWIGIIGSNSKTYYTNWAKGRFTISKTSTTVGLRITSPTTEDTATYFCTVVGPGVGGFYFDLWGQGTLVTVSS
# VL: DVVMTQTPASVSDPVGGTVTIRCQASQSIGSDLAWYQQKPGQPPKLLIYAASTLASGVPSRFSGSGSGTEYTLTISDLESADAATYYCQCTYVGSTYLGAFGGGTEVVVK
# notes: V regions on human Ig constant parts; also called AB27_122
# B13: P018.S.07.A.G02 (antibody, V domains shown)
# VH: QSVEESGGRLVTPGTPLTLTCTVSGFSLSSYDMSWVRQAPGKGLEWIGWITTDGGTDYASWAKGRFTVSKASTTVDLKITSPTTEDTATYFCARGYASFNLWGQGTLVTVSS
# VL: AQVLTQTPSSVSAAVGGTVTINCQSSQSVLSNSYLAWYQQKPGQPPKLLIYAASSLASGVPSRFKGSGSGTQFTLTISDLESDDAATYYCQGTDYSGGWYVAFGGGTEVVVK
# notes: V regions on human Ig constant parts; also called AB27_129
# B14: P018.S.01.A.H06 (antibody, V domains shown)
# VH: QEQLKESGGRLVKPDETLTITCTASGFSLSRYDMSWVRQAPGKGLEWIGSIWSDGDTDYANWAKGRFTISKTSTTVDLKITSPTTEDTATYFCARGYTAWSLWGPGTLVTVSS
# VL: ALVMTQTPSPVSAAVGGTVTISCQSSESVVGNNALSWFQQKPGQPPKLLNYQASTLASGVSSRFSGSGSGTQFTLTISGVQSDDAATYYCQGTYYSSGWYFAFGGGTEVVVK
# notes: V regions on human Ig constant parts; also called AB27_26
# B15: P018.S.05.A.G04 (antibody, V domains shown)
# VH: B14 VH with T17S, I20L, T75M, A94G, S101N
# VL: B14 VL with A14T, V19L, N50I
# notes: V regions on human Ig constant parts; also called AB27_93
# B16: P018.S.09.A.H03 (antibody, V domains shown)
# VH: QSLEESGGRLVTPDESLTLTCTVSGFSLSSNAMIWVRQAPGKGLEWIGIIDTGGSAYYASWAKGRFTISKTSTTVDLKITSPTTEDTATYFCARDRYTDSSGYNLWGQGTLVTVSS
# VL: DIVMTQTPASVEAAVGGTVTIKCQASQSIGASLAWYKQKPGQPPKLLIYSASWLASGVPSRFKGSGSGTEFTLTISDLASADAATYYCQSYYYRSSSGYGYAFGGGTEVVVK
# notes: V regions on human Ig constant parts; also called AB27_160
# Target: T1, CD27 expressed on the cell surface …
# Experiment: cellular binding assay, HT1080_CD27 cells
# Also: test concentration or dose not given here.
row,Cellular binding assay [RFU],Binder
1,387 RFU,B1
2,296 RFU,B2
3,393 RFU,B3
4,297 RFU,B4
5,369 RFU,B5
6,259 RFU,B6
7,376 RFU,B7
8,303 RFU,B8
9,327 RFU,B9
10,292 RFU,B10
11,331 RFU,B11
12,409 RFU,B12
13,453 RFU,B13
14,422 RFU,B14
15,375 RFU,B15
16,268 RFU,B16

# Target: T2, CD27 protein (His-tagged, Sino …)
# Experiment: ELISA on coated His-tagged CD27
row,ELISA [abs. corr.],Binder
1,3.33 abs. corr.,B1
2,3.35 abs. corr.,B2
3,3.33 abs. corr.,B3
4,3.32 abs. corr.,B4
5,3.35 abs. corr.,B5
6,3.32 abs. corr.,B6
7,3.35 abs. corr.,B7
8,3.32 abs. corr.,B8
9,3.35 abs. corr.,B9
10,3.33 abs. corr.,B10
11,3.32 abs. corr.,B11
12,3.34 abs. corr.,B12
13,3.33 abs. corr.,B13
14,3.44 abs. corr.,B14
15,3.35 abs. corr.,B15
16,3.54 abs. corr.,B16

# Target: T1, CD27 expressed on the cell surface …
# Experiment: cell-based or functional assay
"IL-8, cross-linked by F(ab')2 fragment [abs. corr.]",IL-8 [abs. corr.],Binder
1.55 abs. corr.,0.315 abs. corr.,B1
1.58 abs. corr.,0.424 abs. corr.,B2
1.81 abs. corr.,0.449 abs. corr.,B3
1.47 abs. corr.,0.176 abs. corr.,B4
1.18 abs. corr.,0.559 abs. corr.,B5
1.95 abs. corr.,0.633 abs. corr.,B6
1.66 abs. corr.,0.688 abs. corr.,B7
1.63 abs. corr.,0.544 abs. corr.,B8
1.23 abs. corr.,0.422 abs. corr.,B9
1.08 abs. corr.,0.241 abs. corr.,B10
1.29 abs. corr.,0.308 abs. corr.,B11
1.68 abs. corr.,0.569 abs. corr.,B12
2.41 abs. corr.,0.725 abs. corr.,B13
2.18 abs. corr.,0.27 abs. corr.,B14
1.19 abs. corr.,0.393 abs. corr.,B15
2.13 abs. corr.,0.578 abs. corr.,B16
